Substrate in data set [1]: C/C=C/C(=O)SCCNC(=O)CCNC(=O)[C@H](O)C(C)(C)COP(=O)(O)OP(=O)(O)OC[C@H]1O[C@@H](n2cnc3c(N)ncnc32)[C@H](O)[C@@H]1OP(=O)(O)O
The experiment in a line: purified protein. Format: biochemical, Ruegeria pomeroyi. The note with it: hydration, 100 mM HEPES pH 7.4.

Substrate in data set [2]: CSCCC(=O)SCCNC(=O)CCNC(=O)[C@H](O)C(C)(C)COP(=O)(O)OP(=O)(O)OC[C@H]1O[C@@H](n2cnc3c(N)ncnc32)[C@H](O)[C@@H]1OP(=O)(O)O
The experiment in a line: purified protein. The data set is classed as biochemical, Ruegeria pomeroyi. The note with it: CoA ester hydrolysis, 100 mM HEPES pH 7.4.

Substrate in data set [3]: CC(O)CC(=O)SCCNC(=O)CCNC(=O)[C@H](O)C(C)(C)COP(=O)(O)OP(=O)(O)OC[C@H]1O[C@@H](n2cnc3c(N)ncnc32)[C@H](O)[C@@H]1OP(=O)(O)O
In words: purified protein. Format: biochemical, Ruegeria pomeroyi. The note with it: CoA ester hydrolysis, 100 mM HEPES pH 7.4.

Substrate in data set [4]: CS/C=C/C(=O)SCCNC(=O)CCNC(=O)[C@H](O)C(C)(C)COP(=O)(O)OP(=O)(O)OC[C@H]1O[C@@H](n2cnc3c(N)ncnc32)[C@H](O)[C@@H]1OP(=O)(O)O
The experiment in a line: MeSH release by headspace gas chromatography. The data set is classed as biochemical, Ruegeria pomeroyi. The following applies: MeSH release (equivalent to hydration), 100 mM HEPES pH 7.4. The text has this:
MeSH release by headspace gas chromatography on DmdD

Data set [5] deals with the molecule itself. In words: crystal structure; wild-type DmdD free enzyme, 1.5 Å; space group P2(1)3, two monomers in the asymmetric unit, hexamer generated by the crystallographic 3-fold axis; crystals from 100 mM Tris pH 8.5, 25% PEG 3350, 200 mM NaCl, 20°C.
Data set [6] deals with the molecule itself. In words: crystal structure; E121A mutant crystals soaked 48 h with 10 mM MTA-CoA or MMPA-CoA, 1.8 Å; space group P2(1)3, two monomers in the asymmetric unit.

As a reminder, the Km is the substrate concentration at which the rate is half of its maximum. Broadly, the kcat is the number of substrate molecules converted per active site and unit of time at saturation. As usually defined, the stoichiometry N is a count of units in the complex or per binding partner.

B1: Ruegeria pomeroyi DmdD, wild type (enzyme)
chain: MTQDVTSGYSNLDLDLRDNGVCVVTLNRPDKRNALDVATIEELVTFFSTAHRKGVRAVVLTGAGDHFCAGLDLVEHWKADRSADDFMHVCLRWHEAFNKMEYGGVPIIAALRGAVVGGGLELASAAHLRVMDQSTYFALPEGQRGIFTGGGATIRVSDMIGKYRMIDMILTGRVYQGQEAADLGLAQYITEGSSFDKAMELADKIASNLPLTNFAICSAISHMQNMSGLDAAYAEAFVGGIVNTQPAARERLEAFANKTAARVRPNS
notes: DmdD (methylthioacryloyl-CoA hydratase) of Ruegeria pomeroyi, sub-cloned into pET26b; Hexamer (dimer of trimers); The C-terminal His-tag was not cleaved before crystallization; also called wild-type DmdD; free enzyme; not shown: His6, C-terminal, kept
With B1, the Michaelis constant (Km) in the data set “purified protein [1]” came to 19.0 ± 3.1 µM; in “purified protein [2]” it was 69.0 ± 16.4 µM; in the data set “purified protein [3]” it was 119 ± 20 µM; in data set [4] it was 9.4 ± 2.1 µM. The kcat was 42 ± 3 s⁻¹ in the data set “purified protein [1]”, 0.9 ± 0.1 s⁻¹ in the data set “purified protein [2]”, 13.2 ± 1.6 s⁻¹ in “purified protein [3]” and 47 ± 3 s⁻¹ in data set [4]. In addition, the “stoichiometry N” value in data set [5] is 6.

B2: DmdD (Ruegeria pomeroyi DSS-3; E141A) (protein)
chain: MTQDVTSGYSNLDLDLRDNGVCVVTLNRPDKRNALDVATIEELVTFFSTAHRKGVRAVVLTGAGDHFCAGLDLVEHWKADRSADDFMHVCLRWHEAFNKMEYGGVPIIAALRGAVVGGGLELASAAHLRVMDQSTYFALPAGQRGIFTGGGATIRVSDMIGKYRMIDMILTGRVYQGQEAADLGLAQYITEGSSFDKAMELADKIASNLPLTNFAICSAISHMQNMSGLDAAYAEAFVGGIVNTQPAARERLEAFANKTAARVRPNS
notes: pET26b, C-terminal hexahistidine tag (not cleaved before crystallization), expressed in E. coli BL21(DE3) Star; homohexamer (dimer of trimers)
Turning to B2, in data set [4], the Km is 63.3 ± 12.0 µM and the kcat was 0.0036 ± 0.0004 s⁻¹.

B3: Ruegeria pomeroyi DmdD E121A mutant (enzyme)
chain: MTQDVTSGYSNLDLDLRDNGVCVVTLNRPDKRNALDVATIEELVTFFSTAHRKGVRAVVLTGAGDHFCAGLDLVEHWKADRSADDFMHVCLRWHEAFNKMEYGGVPIIAALRGAVVGGGLALASAAHLRVMDQSTYFALPEGQRGIFTGGGATIRVSDMIGKYRMIDMILTGRVYQGQEAADLGLAQYITEGSSFDKAMELADKIASNLPLTNFAICSAISHMQNMSGLDAAYAEAFVGGIVNTQPAARERLEAFANKTAARVRPNS
notes: DmdD (methylthioacryloyl-CoA hydratase) of Ruegeria pomeroyi with the E121A mutation (QuikChange); crystals soaked with MTA-CoA or MMPA-CoA; PDB 4IZB is the wild-type parent; source: E. coli, purified following the same protocol as for the wild-type protein; not shown: His6, C-terminal, kept
With B3, the “stoichiometry N” value in data set [6] turned out to be 6.

(Values after publication PMC3660561, “Crystal Structure of DmdD, a Crotonase Superfamily Enzyme That Catalyzes the Hydration and Hydrolysis of Methylthioacryloyl-CoA” (PLoS ONE, 2013).)
